Here are results for 167 variants from the RNAGym collection of RNA variant scans (doi:10.1073/pnas.2313332121).

Fewer inactive variants are shown than the library holds.

B1: TPR 5TU (parent)
chain: GGAUCUUCUCGAUCUAACAAAAAAGACAAAUCUGCCACAAAGCUUGAGAGCAUCUUCGGAUGCAGAGGCGGCAGCCUUCGGUGGCGCGAUAGCGCCAACGUUCUCAACUAUGACACGCAAAACGCGUGCUCCGUUGAAUGGAGUUUAUCAUG

In this data set the parent is B1. Briefly: polymerase ribozyme fitness, log enrichment relative to wild type (log ratio); higher = more active; in vitro selection for triplet polymerase activity. The method in brief: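 Fitness measures genotype enrichment against wild-type enrichment on a logarithmic scale, with inverse-variance-weighted averaging of replicates. The logarithm is base 2, and genotypes were kept only with ≥10 input reads and ≥1 read per output in Illumina sequencing. The sequenced libraries came from one triplicate in vitro selection round, including frozen incubation at −7 °C, of PCR-built, transcribed mutant libraries of each subunit of a heterodimeric triplet polymerase ribozyme.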
For C79A U90G C95G C116A A119C G141U, the “polymerase ribozyme fitness (log ratio)” value is at most -4.2. G81A A89C A119U C132G U135C G143C U148A: the “polymerase ribozyme fitness (log ratio)” value is at most -4.2.

On to G81C G84U G126C, for which the “polymerase ribozyme fitness (log ratio)” value was -2.04. In the case of U77G G92U A115U it was at most -4.2; in that of C79G A98G G100C G124A, -2.18; in that of U82A A91G C105U, -2.53. For G80C G83U C118A G141C, the “polymerase ribozyme fitness (log ratio)” value is -3.94. As for G80C C131G, the figure is -4.04; as for G80U G86U G94C C105A U134A, at most -4.2; as for U78A U90C, at most -4.2. In the case of C79A U82A C96A A107U U139A it was at most -4.2; in that of U78C U146C, 0.315.

As for U77C C87G A142G, the “polymerase ribozyme fitness (log ratio)” value was at most -4.2. In the case of C76U C105G it was -3.71. As for U82G C95A A110U A138U, the figure is at most -4.2; as for G81C G141C, -0.0339. In the case of C79G G81U G133A it was at most -4.2; in that of C79A G86A, at most -4.2; in that of C79A A91U A107C G124C U144C, at most -4.2.

Consider U82G A98G G117A A122U, for which the “polymerase ribozyme fitness (log ratio)” value worked out at 0.376. In the case of G81A C118A it was -1.82; in that of C76U G86U, -2.16. As for G81C G94U A98U U146G, the figure is -0.695; as for U82G C96A, 0.287. In the case of U82C G94U A98G A107C it was at most -4.2; in that of G80A G128U, -3.18; in that of U77G G84U, at most -4.2. Regarding U82A U102G U144G, the “polymerase ribozyme fitness (log ratio)” value was -1.48. As for G80A C114U A137C, the figure is -3.92; as for C76U G81A, 0.573; as for C76U G117A, 0.649. As to G81U C85A U139G, the “polymerase ribozyme fitness (log ratio)” value was -0.703.

Regarding C79G A122C G140A, the “polymerase ribozyme fitness (log ratio)” value was at most -4.2. For G80U G84A G126C C132U U145A, the “polymerase ribozyme fitness (log ratio)” value is -3.25. In the case of G80A C132U it was -0.678; in that of U78C, -0.318; in that of U78A, -3.62. As for G81A C87U G100U A115U C116U, the figure is -4.04; as for C76U G81A C99U, -0.44.

G80U C105U G136U: the “polymerase ribozyme fitness (log ratio)” value was -1.49.

As to U82A C93G, the “polymerase ribozyme fitness (log ratio)” value is -3.41. As for C76U C99A, the figure is -1.37. As for G81C C125A G140C, the figure is -3.98; as for G80C C96U, -3.79. In the case of G80C C93G A115C U144C it was at most -4.2.

Take G81U C93U G94U A98G C131A A137U: the “polymerase ribozyme fitness (log ratio)” value is at most -4.2. With G81A C131G G140C, the “polymerase ribozyme fitness (log ratio)” value is -4. On to C79U A91U C125A, for which the “polymerase ribozyme fitness (log ratio)” value was at most -4.2. Take U77G U82A A110C G136A A137U A138U: the “polymerase ribozyme fitness (log ratio)” value is at most -4.2. In the case of U78A C93A G94U it was -4.16; in that of C79G U101G U109G U135C U148A, at most -4.2.

Regarding G81U G84U A119U G143A, the “polymerase ribozyme fitness (log ratio)” value is -1.61. For G81U C85U A115C G136C, the “polymerase ribozyme fitness (log ratio)” value was -3.36.

Turning to G80A G83A A106U C116G U139C G143A, the “polymerase ribozyme fitness (log ratio)” value is at most -4.2. As for G81C C132G, the figure is -3.75; as for C79U C85G U101G, at most -4.2. With C79A U139C A142G U148A, the “polymerase ribozyme fitness (log ratio)” value was at most -4.2. Take C76U G84U G143A: the “polymerase ribozyme fitness (log ratio)” value is -2.57. As for G80U A110G, the figure is -4.05. In the case of U78A C95G U127C U130G U139G it was at most -4.2; in that of U82G A89U A91U A98U G100C, at most -4.2; in that of G80U U148C, -3.38. In the case of G81C G126C it was 0.723; in that of U77A C87U A98C C103A C125U U135G, at most -4.2. With U82A U127C G152U, the “polymerase ribozyme fitness (log ratio)” value was -3.97. As for U78G U127C, the figure is at most -4.2. With U77A U78C G94U C95G C105U, the “polymerase ribozyme fitness (log ratio)” value was at most -4.2. As for G81A C95A A98U, the figure is -0.289; as for G80A U144G, 1.27; as for G80U C85A, -2.27. As for G81U C96U A150C, the figure is -3.33; as for C76U U82C A89G, -1.3.

As to G81C G86A, the “polymerase ribozyme fitness (log ratio)” value was -1.83. In the case of G81A A97U it was -0.297; in that of G80U C118A A119G, -1.3; in that of C76U G84A C85A C129U U134C, at most -4.2. As for U78G A89U C93G A106G C118G U145C A150U U151G, the figure is at most -4.2; as for C76U U82G C87U, 0.25; as for U82A G92C, 0.508. In the case of U82A G92U it was -0.55.

With G81C A98U A107G, the “polymerase ribozyme fitness (log ratio)” value was at most -4.2.

In the case of C79A U101G, the “polymerase ribozyme fitness (log ratio)” value was at most -4.2. Take G80A C93U: the “polymerase ribozyme fitness (log ratio)” value was -1.6. In the case of C79G G88C G92A C125G it was at most -4.2; in that of G80A U146G U148C, -3.91. In the case of C79G C125U A142C U148C U151G it was at most -4.2. As for U82C C114U, the figure is -1.99; as for G81C C87A A91U C93U C114G A138C G141C, at most -4.2; as for U82A U102G, -2.54. With C79G C95U, the “polymerase ribozyme fitness (log ratio)” value is -3.03. As to G80A C85U G136A G143C, the “polymerase ribozyme fitness (log ratio)” value is -1.57. In the case of C76U G84A U104G U151C it was at most -4.2; in that of C79A A91G A110G, at most -4.2; in that of C79U U90A A106U, at most -4.2. In the case of U78A C93A G124U, the “polymerase ribozyme fitness (log ratio)” value was at most -4.2. As for U77A C85U A91G G133C A142G, the figure is at most -4.2; as for U77G G86U C93G C96A C118G U145G, at most -4.2. For the variant G80A A91C G94A, the “polymerase ribozyme fitness (log ratio)” value was -4.16. In the case of G81A A115U A142U it was -2.42.

With U82A C129A, the “polymerase ribozyme fitness (log ratio)” value was -2.19.

For G80C G92U C96U U135G A150G, the “polymerase ribozyme fitness (log ratio)” value is at most -4.2. As for C79A G80A G81A G88U, the “polymerase ribozyme fitness (log ratio)” value was at most -4.2. In the case of U77G A91G G152A it was at most -4.2; in that of U77C A91U U146A, at most -4.2. G81A C85U C132A: the “polymerase ribozyme fitness (log ratio)” value is -2.23. As for C79U G140C, the figure is -4.1; as for U82C, -0.0678; as for U82G, 0.17.

Turning to U82A, the “polymerase ribozyme fitness (log ratio)” value was -0.0631. As for G81C G117A A119C, the figure is 0.184; as for G81A C87U G100C G133U G141U, at most -4.2; as for C76U C93G C132U, -3.96.

With U82G A137C, the “polymerase ribozyme fitness (log ratio)” value is -2.98.

Consider U77G C103G, for which the “polymerase ribozyme fitness (log ratio)” value is at most -4.2. As for G80U C125A, the figure is -1.04; as for C76U G84U C125U G141U, -3.46. In the case of U82G C87U U146C it was -0.959; in that of G81A C85A, 0.102; in that of U82G A110G C125G A137U, at most -4.2. Take C79U G88C C93A G136U G143C: the “polymerase ribozyme fitness (log ratio)” value was at most -4.2. As for G81A G86A, the figure is -1.56. In the case of U77G G141A it was -4.18. In the case of C76U G84A U101A it was -0.872.

With U77G A89U C95A C114U C125G, the “polymerase ribozyme fitness (log ratio)” value is at most -4.2. As for G81U C85A C95A, the figure is -1.06; as for C79A C93A C95U, at most -4.2; as for U82G C93A, -2.46.

With G81A A89C, the “polymerase ribozyme fitness (log ratio)” value is -0.165. In the case of G81A C103A it was -1.13. In the case of C79U G84A it was -3.04. As for U82G A121G, the figure is -0.49; as for G81U C96U, -1.85. For the variant C79U C93U C95U, the “polymerase ribozyme fitness (log ratio)” value is -4.08. In the case of G81C G126C U145C it was 0.873; in that of G80C C85U A97C C99A G141U, -3.93; in that of U78C C95U C108U C116U, at most -4.2. As for C76U G88U, the figure is at most -4.2; as for G81C C95A U134A U144C, -2.86. As for C79G A91G A113U, the figure is at most -4.2.

In the case of G80C C87U, the “polymerase ribozyme fitness (log ratio)” value was at most -4.2. As for G80C G83A A110U, the “polymerase ribozyme fitness (log ratio)” value was at most -4.2. Turning to G80A G81C C95G U145G, the “polymerase ribozyme fitness (log ratio)” value was -1.72. As to U82C C85U C114A, the “polymerase ribozyme fitness (log ratio)” value is -3.22. In the case of U77G C93U G117C it was at most -4.2; in that of U82G C85U A107U, -3.59; in that of C76U G143A, -1.28. On to U82A A107U, for which the “polymerase ribozyme fitness (log ratio)” value was -2.79. As for C79U A91C, the figure is -4.02. Consider C79G C87U G100U, for which the “polymerase ribozyme fitness (log ratio)” value was -2.91.

In the case of U82G A113G C125U, the “polymerase ribozyme fitness (log ratio)” value was -3.28. As for C76U G88U A91C C93U G140C, the figure is at most -4.2; as for C79U C93U, -3.03.

C79U C93A: the “polymerase ribozyme fitness (log ratio)” value was -3.77. In the case of U78A A91U it was at most -4.2; in that of G81A C118A U148C, -2.6. In the case of U77A G81A A113U U134G it was at most -4.2; in that of G81A A89U G112A G133U C149U, at most -4.2; in that of G81C C85U A107C G126A, -4.16. In the case of U77C G94C it was -3.48; in that of G80A A89G G117U, -1.48.

Regarding U82G C87U G92U A98G, the “polymerase ribozyme fitness (log ratio)” value is -2.69. In the case of G81C C103U U134G it was -2.49. As for G80C C95U C99A G133U, the figure is at most -4.2; as for C79U G84A C108A C114A C118A U139G, at most -4.2; as for U82G C85A C95U U146A A150U, -1.37. As for G80C G84C G133A G141C, the figure is at most -4.2; as for C79U C87U A113G, -4.11.
